In patent US20220298217A1 (FLAGSHIP PIONEERING INNOVATIONS VI, published 2022):
Positions count from the first letter of the chain named. Values belong to the binder of their own block, whether it stands above or below them.

What was measured:
[1] = biological target: T1, PTHR1 on CHO-K1/Ga15/PTHR1 cells (UniProt Q03431 27-593, limits assumed); assay: cell-based or functional assay
T1 sequence (looked up): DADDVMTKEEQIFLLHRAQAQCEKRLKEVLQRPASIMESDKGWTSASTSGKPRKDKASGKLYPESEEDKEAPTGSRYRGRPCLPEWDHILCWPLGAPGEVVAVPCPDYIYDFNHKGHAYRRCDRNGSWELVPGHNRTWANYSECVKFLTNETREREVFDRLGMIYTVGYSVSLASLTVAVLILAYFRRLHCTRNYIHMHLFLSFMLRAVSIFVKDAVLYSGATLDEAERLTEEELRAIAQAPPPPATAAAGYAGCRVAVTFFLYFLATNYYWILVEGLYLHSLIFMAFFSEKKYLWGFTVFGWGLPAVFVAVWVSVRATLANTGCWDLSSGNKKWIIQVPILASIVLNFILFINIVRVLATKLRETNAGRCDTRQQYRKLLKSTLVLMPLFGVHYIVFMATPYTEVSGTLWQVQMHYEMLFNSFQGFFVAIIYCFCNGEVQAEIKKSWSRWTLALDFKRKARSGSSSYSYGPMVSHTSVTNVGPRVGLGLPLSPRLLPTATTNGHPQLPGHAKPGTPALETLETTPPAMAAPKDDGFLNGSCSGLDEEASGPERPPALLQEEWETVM

Flag-PTHR1-YFP = biological target: T2, Flag-PTHR1-YFP (UniProt Q03431 27-593); assay: cell-based or functional assay
T2 sequence (looked up): T1 sequence (looked up)

cAMP accumulation (HTRF): -log10EC50 [1]: -8.01 -log10EC50 (as headed)
cAMP accumulation (HTRF): Emax [1]: 99.7%
B1: R1-96 (peptide)
peptide: AVAEIQLMHQRAKWRAEYELREMLLRLLEEIF

cAMP accumulation (HTRF): -log10EC50 [1]: -5.59 -log10EC50 (as headed)
cAMP accumulation (HTRF): Emax [1]: 97.4%
B2: R2-52 (peptide)
peptide: GIAVITLMLLRAYLELLEELVKILHELLRRYH

cAMP accumulation (HTRF): -log10EC50 [1]: -1.58 -log10EC50 (as headed)
cAMP accumulation (HTRF): Emax [1]: 823%
B3: R2-7 (peptide)
peptide: GVAELQLMHFRALLRAEYELREMLLRLLEEIF

cAMP accumulation (HTRF): -log10EC50 [1]: -7.88 -log10EC50 (as headed)
cAMP accumulation (HTRF): Emax [1]: 95%
B4: LA-PM-FL (R1-81) (peptide)
peptide: AVAEIQLMHQRAKWIQDARRRAFLHKLIAEIH

cAMP accumulation (HTRF): -log10EC50 [1]: -14 -log10EC50 (as headed)
cAMP accumulation (HTRF): Emax [1]: 104%
B5: R2-31 (peptide)
peptide: AVAEIQLMHQRAKWGLDLELRARLREILRDVY

cAMP accumulation (HTRF): -log10EC50 [1]: -7.89 -log10EC50 (as headed)
cAMP accumulation (HTRF): Emax [1]: 96%
B6: R2-25 (peptide)
peptide: AVAEIQLMHQRAKWKLELELKVKLLEILKDVY

cAMP accumulation (HTRF): -log10EC50 [1]: -6.91 -log10EC50 (as headed)
cAMP accumulation (HTRF): Emax [1]: 99.1%
B7: R2-38 (peptide)
peptide: AVAEIQLMHQRAKWELLEELLKILLELLKEYI

cAMP accumulation (HTRF): -log10EC50 [1]: -7.22 -log10EC50 (as headed)
cAMP accumulation (HTRF): Emax [1]: 97.5%
B8: R2-29 (peptide)
peptide: AVAEIQLMHQRAKWKLELELKEKIRKLLEDLL

arrestin 2 recruitment (BRET): -log10EC50 (Flag-PTHR1-YFP): -3.46 -log10EC50 (as headed)
arrestin 2 recruitment (BRET): Emax (Flag-PTHR1-YFP): 35.8
cAMP accumulation (HTRF): -log10EC50 [1]: -8.01 -log10EC50 (as headed)
cAMP accumulation (HTRF): Emax [1]: 97%
B9: R2-35 (peptide)
peptide: AVAEIQLMHQRAKWGVELQLKVDLRRILEDVY

arrestin 2 recruitment (BRET): -log10EC50 (Flag-PTHR1-YFP): -7.7 -log10EC50 (as headed)
arrestin 2 recruitment (BRET): Emax (Flag-PTHR1-YFP): 6.88
B10: R2-39 (peptide)
peptide: AVAEIQLMHQRAKWELQEIGIKITLDLLEAYL

cAMP accumulation (HTRF): -log10EC50 [1]: -3.86 -log10EC50 (as headed)
cAMP accumulation (HTRF): Emax [1]: 154%
B11: R2-12 (peptide)
peptide: GVAEIQLMVDLDIIRAEYELREMLLRLLEEIF

cAMP accumulation (HTRF): -log10EC50 [1]: -4.93 -log10EC50 (as headed)
cAMP accumulation (HTRF): Emax [1]: 260%
B12: R2-3 (peptide)
peptide: B11 peptide with V9H, L11I, D12P, I13V

cAMP accumulation (HTRF): -log10EC50 [1]: 3.88 -log10EC50 (as headed)
cAMP accumulation (HTRF): Emax [1]: 294%
B13: R2-6 (peptide)
peptide: AVATIQLMTDIAKIRAEYELREMLLRLLEEIF

cAMP accumulation (HTRF): -log10EC50 [1]: -9.98 -log10EC50 (as headed)
cAMP accumulation (HTRF): Emax [1]: 3.99%
B14: R2-51 (peptide)
peptide: GIAVITLMVLRALLELQEIGRKITLELLKEYI

cAMP accumulation (HTRF): -log10EC50 [1]: -10.1 -log10EC50 (as headed)
cAMP accumulation (HTRF): Emax [1]: 90.8%
B15: R1-94 (peptide)
peptide: VDFEIQLMQQRAQWIADYRIREFLDKLIAEIF

cAMP accumulation (HTRF): -log10EC50 [1]: -10.1 -log10EC50 (as headed)
cAMP accumulation (HTRF): Emax [1]: 17.6%
B16: R2-22 (peptide)
peptide: GIAVITIMIDYAKLRAEYELREMLLRLLEEIF

cAMP accumulation (HTRF): -log10EC50 [1]: -2.23 -log10EC50 (as headed)
cAMP accumulation (HTRF): Emax [1]: 36.6%
B17: R2-18 (peptide)
peptide: SIIGEQLMLLRALLRAEYELREMLLRLLEEIF

arrestin 2 recruitment (BRET): -log10EC50 (Flag-PTHR1-YFP): -8.41 -log10EC50 (as headed)
arrestin 2 recruitment (BRET): Emax (Flag-PTHR1-YFP): 7.61
cAMP accumulation (HTRF): -log10EC50 [1]: -6.98 -log10EC50 (as headed)
cAMP accumulation (HTRF): Emax [1]: 96.1%
B18: R2-34 (peptide)
peptide: AVAEIQLMHQRAKWRLEIELLKKLKEILKDVY

cAMP accumulation (HTRF): -log10EC50 [1]: -10.4 -log10EC50 (as headed)
cAMP accumulation (HTRF): Emax [1]: 81.4%
B19: R2-24 (peptide)
peptide: GLAALTIGLLRAKLRAEYELREMLLRLLEEIF

cAMP accumulation (HTRF): -log10EC50 [1]: -7.07 -log10EC50 (as headed)
cAMP accumulation (HTRF): Emax [1]: 96.8%
B20: R2-26 (peptide)
peptide: AVAEIQLMHQRAKWGLELELKEKLRKILEDVY

cAMP accumulation (HTRF): -log10EC50 [1]: -5.79 -log10EC50 (as headed)
cAMP accumulation (HTRF): Emax [1]: 99.9%
B21: R2-49 (peptide)
peptide: GVAELQLMHDLAKIKLELELKVKLLEILKDVY

arrestin 2 recruitment (BRET): -log10EC50 (Flag-PTHR1-YFP): -6.73 -log10EC50 (as headed)
arrestin 2 recruitment (BRET): Emax (Flag-PTHR1-YFP): 8.34
B22: R2-46 (peptide)
peptide: AVAEIQLMHQRAKWSILEELLKILTALLDEYI

cAMP accumulation (HTRF): -log10EC50 [1]: -10.3 -log10EC50 (as headed)
cAMP accumulation (HTRF): Emax [1]: 98.2%
B23: R2-41 (peptide)
peptide: AVAEIQLMHQRAKWEIQEIGIKITLDLLQTLK

cAMP accumulation (HTRF): -log10EC50 [1]: -7.1 -log10EC50 (as headed)
cAMP accumulation (HTRF): Emax [1]: 97.2%
B24: R2-30 (peptide)
peptide: AVAEIQLMHQRAKWLEELKLKDDLRKILEDVY

cAMP accumulation (HTRF): -log10EC50 [1]: -7.28 -log10EC50 (as headed)
cAMP accumulation (HTRF): Emax [1]: 99.9%
B25: I1 (R1-100) (peptide)
peptide: AVAEIQLMHQRAKWELEYELFEMFLKLLEEIF

cAMP accumulation (HTRF): -log10EC50 [1]: -5.7 -log10EC50 (as headed)
cAMP accumulation (HTRF): Emax [1]: 60.8%
B26: R2-11 (peptide)
peptide: GVAMLQILHDKAKVRAEYELREMLLRLLEEIF

cAMP accumulation (HTRF): Emax [1]: 1580%
B27: R2-5 (peptide)
peptide: B26 peptide with M4L, L8V, K11F, V14I

cAMP accumulation (HTRF): -log10EC50 [1]: -7.1 -log10EC50 (as headed)
cAMP accumulation (HTRF): Emax [1]: 96.9%
B28: R2-33 (peptide)
peptide: AVAEIQLMHQRAKWLNELRLKEEMRKILEDVY

cAMP accumulation (HTRF): -log10EC50 [1]: -4.49 -log10EC50 (as headed)
cAMP accumulation (HTRF): Emax [1]: 1680%
B29: R2-10 (peptide)
peptide: GVYAIQAMHDLAKIRAEYELREMLLRLLEEIF

cAMP accumulation (HTRF): -log10EC50 [1]: -6.73 -log10EC50 (as headed)
cAMP accumulation (HTRF): Emax [1]: 101%
B30: R2-2 (peptide)
peptide: B13 peptide with A1G, T4M, L7I, T9H

cAMP accumulation (HTRF): -log10EC50 [1]: -7.5 -log10EC50 (as headed)
cAMP accumulation (HTRF): Emax [1]: 19.9%
B31: R2-8 (peptide)
peptide: B29 peptide with G1S, Y3M, A4M, A7V

cAMP accumulation (HTRF): -log10EC50 [1]: -5.31 -log10EC50 (as headed)
cAMP accumulation (HTRF): Emax [1]: 116%
B32: R2-13 (peptide)
peptide: GIAVITLMDLRAYLRAEYELREMLLRLLEEIF

cAMP accumulation (HTRF): -log10EC50 [1]: -4.71 -log10EC50 (as headed)
cAMP accumulation (HTRF): Emax [1]: 48.7%
B33: R2-16 (peptide)
peptide: B32 peptide with G1L, A3L, I5E, T6Q

cAMP accumulation (HTRF): -log10EC50 [1]: -3.35 -log10EC50 (as headed)
cAMP accumulation (HTRF): Emax [1]: 39.7%
B34: R2-17 (peptide)
peptide: B32 peptide with I5F, L7I, D9H, A12I

cAMP accumulation (HTRF): -log10EC50 [1]: -11.3 -log10EC50 (as headed)
cAMP accumulation (HTRF): Emax [1]: 117%
B35: R2-14 (peptide)
peptide: B32 peptide with I5L, L7I, M8L, Y13K

cAMP accumulation (HTRF): -log10EC50 [1]: -7.23 -log10EC50 (as headed)
cAMP accumulation (HTRF): Emax [1]: 99.3%
B36: I3 (R1-97) (peptide)
peptide: AVAEIQLMHQRAKWELEFELFREFLKLLVDFF

cAMP accumulation (HTRF): -log10EC50 [1]: -5.87 -log10EC50 (as headed)
cAMP accumulation (HTRF): Emax [1]: 10.6%
B37: R2-4 (peptide)
peptide: GVSMLQIMHDLAVIRAEYELREMLLRLLEEIF

cAMP accumulation (HTRF): -log10EC50 [1]: 110 -log10EC50 (as headed)
cAMP accumulation (HTRF): Emax [1]: 665%
B38: R2-9 (peptide)
peptide: B37 peptide with S3V, I7F, L11V, V13K

cAMP accumulation (HTRF): -log10EC50 [1]: -7.03 -log10EC50 (as headed)
cAMP accumulation (HTRF): Emax [1]: 99.2%
B39: R2-28 (peptide)
peptide: AVAEIQLMHQRAKWGLDLELAVKLQEILKDVL

cAMP accumulation (HTRF): -log10EC50 [1]: -4.69 -log10EC50 (as headed)
cAMP accumulation (HTRF): Emax [1]: 324%
B40: R2-19 (peptide)
peptide: PIPVKDIMDLRAYLRAEYELREMLLRLLEEIF

cAMP accumulation (HTRF): -log10EC50 [1]: -4.67 -log10EC50 (as headed)
cAMP accumulation (HTRF): Emax [1]: 47%
B41: R2-21 (peptide)
peptide: B40 peptide with P1L, P3L, D6K, M8I

cAMP accumulation (HTRF): -log10EC50 [1]: -7.91 -log10EC50 (as headed)
cAMP accumulation (HTRF): Emax [1]: 93.3%
B42: R2-27 (peptide)
peptide: AVAEIQLMHQRAKWKLDLELAVSLRKILEDVY

cAMP accumulation (HTRF): -log10EC50 [1]: -6.51 -log10EC50 (as headed)
cAMP accumulation (HTRF): Emax [1]: 101%
B43: R2-32 (peptide)
peptide: AVAEIQLMHQRAKWKQELELEEKNKKILEDVY
